In PMC5895659, “Mechanistic and Structural Insights Into the Unique TetR-Dependent Regulation of a Drug Efflux Pump in Mycobacterium abscessus” (Frontiers in Microbiology, 2018):
Changes are numbered by the printed parent chain.

Columns and labels:
[1] = molecular target: T1, MAB_4384 (TetR regulator) (Mycobacterium abscessus subsp. …, UniProt B1MJU8 1-221); experiment: EMSA; 280 nM probe; EMSA: 280 nM fluorescein probe, 1X TAE, 1 h, room temperature, 6% native PAGE in 1X TAE; SEC: 50 mM Tris-HCl pH 8, 200 mM NaCl, 5 mM beta-mercaptoethanol, 4 C; conditions: protein: recombinant; tags: Trx-His6 tag removed by TEV; residual Gly at N-terminus; chain copies: 4; label: 5' fluorescein; blunt
MAB_4384 (D14N/F57L) = molecular target: T2, MAB_4384 (D14N/F57L) (Mycobacterium abscessus subsp. …, UniProt B1MJU8 1-221, D14N;F57L); experiment: EMSA; fully abrogated; EMSA: 280 nM fluorescein probe, 1X TAE, 1 h, room temperature, 6% native PAGE in 1X TAE; SEC: 50 mM Tris-HCl pH 8, 200 mM NaCl, 5 mM beta-mercaptoethanol, 4 C; conditions: protein: recombinant; tags: Trx-His6 tag removed by TEV; residual Gly at N-terminus; chain copies: 2; label: 5' fluorescein; blunt
T2 sequence: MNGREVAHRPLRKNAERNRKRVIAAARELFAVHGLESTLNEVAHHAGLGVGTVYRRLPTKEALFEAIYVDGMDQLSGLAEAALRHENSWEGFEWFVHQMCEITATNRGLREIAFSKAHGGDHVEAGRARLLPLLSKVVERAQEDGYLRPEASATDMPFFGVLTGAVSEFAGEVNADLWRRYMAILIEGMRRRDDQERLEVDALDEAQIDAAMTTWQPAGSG

[2] = molecular target: T1, MAB_4384 (TetR regulator); experiment: competition; cold probe vs 280 nM labeled Probe 1; dose-dependent decrease; EMSA: 280 nM fluorescein probe, 1X TAE, 1 h, room temperature, 6% native PAGE in 1X TAE; SEC: 50 mM Tris-HCl pH 8, 200 mM NaCl, 5 mM beta-mercaptoethanol, 4 C; conditions: protein: recombinant; tags: Trx-His6 tag removed by TEV; residual Gly at N-terminus; chain copies: 4; blunt
[3] = molecular target: T1, MAB_4384 (TetR regulator); experiment: EMSA; comparable to Probe 1; EMSA: 280 nM fluorescein probe, 1X TAE, 1 h, room temperature, 6% native PAGE in 1X TAE; SEC: 50 mM Tris-HCl pH 8, 200 mM NaCl, 5 mM beta-mercaptoethanol, 4 C; conditions: protein: recombinant; tags: Trx-His6 tag removed by TEV; residual Gly at N-terminus; chain copies: 4; label: 5' fluorescein; blunt
[4] = molecular target: MAB_4384 (TetR regulator) (Mycobacterium abscessus subsp. …, UniProt B1MJU8 1-221); experiment: competition; excess non-related labeled probe; shift of Probe 1 maintained; EMSA: 280 nM fluorescein probe, 1X TAE, 1 h, room temperature, 6% native PAGE in 1X TAE; SEC: 50 mM Tris-HCl pH 8, 200 mM NaCl, 5 mM beta-mercaptoethanol, 4 C; conditions: protein: recombinant; tags: Trx-His6 tag removed by TEV; residual Gly at N-terminus; chain copies: 4; label: 5' fluorescein; blunt
[5] = molecular target: the molecule itself; experiment: SEC; ENrich SEC 650 column, 50 mM Tris-HCl pH 8, 200 mM NaCl, 5 mM beta-mercaptoethanol, 0.4 mL/min, 4 °C; MAB_4384 at 3.9 mg/mL; apparent mass from a calibration curve (42.6 kDa against 24.7 kDa theoretical)

B1: Probe 1 (IRS5/L5 operator) (dsDNA)
DNA 1: CACTTCGCCATAAGTGGATTGACTCTATCCACTTTTACCCATAGA
DNA 2: TCTATGGGTAAAAGTGGATAGAGTCAATCCACTTATGGCGAAGTG
[1]
  binding result: binds
MAB_4384 (D14N/F57L)
  binding result: no binding

B2: Probe 1 unlabeled (dsDNA)
DNA 1: B1 DNA 1
DNA 2: B1 DNA 2
[2]
  binding result: binds

B3: Probe 3 (flanks randomly changed) (dsDNA)
DNA 1: TCTGGATAAGCAAGTGGATTGACTCTATCCACTTCCGAAACCGAC
DNA 2: GTCGGTTTCGGAAGTGGATAGAGTCAATCCACTTGCTTATCCAGA
[3]
  binding result: binds

B4: Non-specific probe (dsDNA)
DNA 1: ATGGAACTTGAAGGACTGACCGCGTTG
DNA 2: CAACGCGGTCAGTCCTTCAAGTTCCAT
[4]
  binding result: no binding

B5: MAB_4384 TetR regulator (natural protein)
chain: T2 sequence with N14D, L57F
notes: MAB_4384, TetR family transcriptional repressor of Mycobacterium abscessus subsp. abscessus CIP104536T; amplified from genomic DNA with the MAB_4384_full primers; theoretical mass 24.7 kDa; the account of the structure (chain A modelled Asp14 to Thr213, first thirteen and last eight residues not visible) implies residues 1-221; also called wild-type MAB_4384; source: E. coli BL21 Rosetta 2 (DE3), …
[5]
  stoichiometry N: 2
